In this experiment the target is Mcm2/4/6/7 complex (wild type) (mouse, UniProt P97310 1-904; P49717 1-862; P97311 1-821; Q61881 1-719). The experiment is described as follows: co-sedimentation.
Sequence of Mcm2/4/6/7 complex (wild type) (P97310 whole entry, chain 1 of 4): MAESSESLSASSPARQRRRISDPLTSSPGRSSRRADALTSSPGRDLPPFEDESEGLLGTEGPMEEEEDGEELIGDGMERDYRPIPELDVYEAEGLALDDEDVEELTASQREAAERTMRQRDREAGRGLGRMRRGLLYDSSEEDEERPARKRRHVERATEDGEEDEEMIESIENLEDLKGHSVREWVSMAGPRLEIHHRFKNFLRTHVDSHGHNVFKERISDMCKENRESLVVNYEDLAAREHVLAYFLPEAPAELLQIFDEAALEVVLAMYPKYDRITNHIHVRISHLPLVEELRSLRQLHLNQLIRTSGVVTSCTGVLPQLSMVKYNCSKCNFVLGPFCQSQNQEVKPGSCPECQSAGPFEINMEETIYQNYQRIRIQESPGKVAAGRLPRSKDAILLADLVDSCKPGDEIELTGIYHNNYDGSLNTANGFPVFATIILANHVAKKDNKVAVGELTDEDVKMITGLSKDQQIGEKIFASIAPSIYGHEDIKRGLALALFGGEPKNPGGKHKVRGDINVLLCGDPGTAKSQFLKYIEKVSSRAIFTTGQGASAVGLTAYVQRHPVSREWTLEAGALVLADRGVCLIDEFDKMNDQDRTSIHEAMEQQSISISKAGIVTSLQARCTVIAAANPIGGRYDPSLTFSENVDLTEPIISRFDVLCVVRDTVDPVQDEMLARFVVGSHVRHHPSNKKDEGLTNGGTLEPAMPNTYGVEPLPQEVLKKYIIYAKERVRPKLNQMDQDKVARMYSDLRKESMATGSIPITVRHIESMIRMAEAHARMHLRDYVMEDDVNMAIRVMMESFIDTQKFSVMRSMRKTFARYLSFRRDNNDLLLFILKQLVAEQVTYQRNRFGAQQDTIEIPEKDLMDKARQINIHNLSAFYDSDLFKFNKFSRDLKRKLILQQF
Sequence of Mcm2/4/6/7 complex (wild type) (P49717 whole entry, chain 2 of 4): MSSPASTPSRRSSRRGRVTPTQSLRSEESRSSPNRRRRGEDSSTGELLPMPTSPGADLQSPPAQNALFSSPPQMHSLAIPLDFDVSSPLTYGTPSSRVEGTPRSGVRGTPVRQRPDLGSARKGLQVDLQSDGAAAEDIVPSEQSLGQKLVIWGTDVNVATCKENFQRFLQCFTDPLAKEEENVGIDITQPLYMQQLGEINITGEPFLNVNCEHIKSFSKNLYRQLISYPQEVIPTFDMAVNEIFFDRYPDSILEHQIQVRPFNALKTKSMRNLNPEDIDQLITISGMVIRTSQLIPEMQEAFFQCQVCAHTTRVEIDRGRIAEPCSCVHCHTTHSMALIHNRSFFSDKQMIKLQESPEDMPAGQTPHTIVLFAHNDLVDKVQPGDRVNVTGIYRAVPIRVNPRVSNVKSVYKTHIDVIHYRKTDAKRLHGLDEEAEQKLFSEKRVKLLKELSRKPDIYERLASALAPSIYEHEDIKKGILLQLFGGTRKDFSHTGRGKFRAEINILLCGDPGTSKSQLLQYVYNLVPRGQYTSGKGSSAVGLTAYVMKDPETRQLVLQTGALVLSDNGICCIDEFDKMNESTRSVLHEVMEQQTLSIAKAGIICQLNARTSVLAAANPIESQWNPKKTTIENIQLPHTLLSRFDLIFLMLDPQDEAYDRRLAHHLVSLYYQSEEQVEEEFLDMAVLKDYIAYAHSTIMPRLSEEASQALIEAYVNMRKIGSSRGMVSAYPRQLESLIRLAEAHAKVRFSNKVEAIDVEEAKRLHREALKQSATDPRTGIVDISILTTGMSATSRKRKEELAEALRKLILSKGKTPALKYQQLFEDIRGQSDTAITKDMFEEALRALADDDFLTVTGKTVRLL
Sequence of Mcm2/4/6/7 complex (wild type) (P97311 whole entry, chain 3 of 4): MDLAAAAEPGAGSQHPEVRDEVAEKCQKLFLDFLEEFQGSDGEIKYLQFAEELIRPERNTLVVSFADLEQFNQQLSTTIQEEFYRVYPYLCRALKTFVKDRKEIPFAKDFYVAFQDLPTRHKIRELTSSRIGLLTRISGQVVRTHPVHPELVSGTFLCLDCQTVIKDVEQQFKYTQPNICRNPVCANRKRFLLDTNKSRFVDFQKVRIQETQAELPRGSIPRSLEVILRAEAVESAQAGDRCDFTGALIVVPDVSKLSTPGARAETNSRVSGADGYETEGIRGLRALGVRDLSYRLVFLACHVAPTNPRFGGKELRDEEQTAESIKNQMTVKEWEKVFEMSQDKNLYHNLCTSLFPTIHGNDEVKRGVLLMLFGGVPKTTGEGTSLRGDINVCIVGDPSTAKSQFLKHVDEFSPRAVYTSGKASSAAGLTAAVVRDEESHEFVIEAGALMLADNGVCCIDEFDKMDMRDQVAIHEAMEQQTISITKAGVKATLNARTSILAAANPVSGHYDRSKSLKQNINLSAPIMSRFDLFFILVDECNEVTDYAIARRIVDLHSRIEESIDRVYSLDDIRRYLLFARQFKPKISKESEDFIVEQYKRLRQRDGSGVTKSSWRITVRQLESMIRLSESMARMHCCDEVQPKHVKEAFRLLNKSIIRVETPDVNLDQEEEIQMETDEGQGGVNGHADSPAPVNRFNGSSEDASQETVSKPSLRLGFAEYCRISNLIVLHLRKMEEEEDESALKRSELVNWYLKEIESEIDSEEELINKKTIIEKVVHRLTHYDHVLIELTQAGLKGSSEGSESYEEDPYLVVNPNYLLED
Sequence of Mcm2/4/6/7 complex (wild type) (Q61881 whole entry, chain 4 of 4): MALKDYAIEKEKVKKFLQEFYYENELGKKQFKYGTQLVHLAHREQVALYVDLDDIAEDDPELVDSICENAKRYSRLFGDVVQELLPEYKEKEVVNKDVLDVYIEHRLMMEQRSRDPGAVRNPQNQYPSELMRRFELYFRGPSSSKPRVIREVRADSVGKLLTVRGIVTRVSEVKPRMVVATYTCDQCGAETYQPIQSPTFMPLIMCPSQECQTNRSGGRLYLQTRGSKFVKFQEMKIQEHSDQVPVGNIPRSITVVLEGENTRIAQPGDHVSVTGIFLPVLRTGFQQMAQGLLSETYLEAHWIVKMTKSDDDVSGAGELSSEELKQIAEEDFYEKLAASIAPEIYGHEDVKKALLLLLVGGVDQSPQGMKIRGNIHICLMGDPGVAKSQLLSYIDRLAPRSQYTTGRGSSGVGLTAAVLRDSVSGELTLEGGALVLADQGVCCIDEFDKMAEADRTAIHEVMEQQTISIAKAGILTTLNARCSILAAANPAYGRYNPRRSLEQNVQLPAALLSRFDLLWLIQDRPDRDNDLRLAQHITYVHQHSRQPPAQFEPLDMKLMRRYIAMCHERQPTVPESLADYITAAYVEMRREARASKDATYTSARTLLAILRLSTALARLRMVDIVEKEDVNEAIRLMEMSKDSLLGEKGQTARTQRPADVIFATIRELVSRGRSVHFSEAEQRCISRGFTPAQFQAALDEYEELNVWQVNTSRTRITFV

B1: Mcm3/5 complex (wild type) (complex, mouse)
chain 1: MAGTVVLDDVELREAQRDYLDFLDDEEDQGIYQNKVRELISDNQYRLIVSVNDLRRKNEKRANRLLNNAFEELVAFQRALKDFVASIDATYAKQYEEFYIGLEGSFGSKHVSPRTLTSCFLSCVVCVEGIVTKCSLVRPKVVRSVHYCPATKKTIERRYSDLTTLVAFPSSSVYPTKDEENNPLETEYGLSVYKDHQTITIQEMPEKAPAGQLPRSVDVILDDDLVDKVKPGDRIQVVGTYRCLPGKKGCYTSGTFRTVLIACNVKQMSKDIQPAFSADDIAKIKKFSKTRSKDVFEQLARSLAPSIHGHDYVKKAILCLLLGGVERELENGSHIRGDINILLIGDPSVAKSQLLRYVLCTAPRAIPTTGRGSSGVGLTAAVTTDQETGERRLEAGAMVLADRGVVCIDEFDKMSDMDRTAIHEVMEQGRVTIAKAGIHARLNARCSVLAAANPVYGRYDQYKTPMENIGLQDSLLSRFDLLFIMLDQMDPEQDREISDHVLRMHQYRAPGEQDGDALPLGSSVDILATDDPDFTQDDQQDTRIYEKHDSLLHGTKKKKEKMVSAAFMKKYIHVAKIIKPTLTQESAAYIAEEYSRLRSQDSMSSDTARTSPVTARTLETLIRLATAHAKARMSKTVDLQDAEEAVELVQYAYFKKVLEKEKKRKKASEDESDLEDEEEKSQEDTEQKRKRRKTHAKDGESYDPYDFSEAETQMPQVHTPKTDDSQEKTDDSQETQDSQKVELSEPRLKAFKAALLEVFQEAHEQSVGMLHLTESINRNREEPFSSEEIQACLSRMQDDNQVMVSEGIVFLI
chain 2: MSGFDDPGIFYSDSFGGDPGAEEGQARKSQLQRRFKEFLRQYRVGTDRTGFTFKYRDELKRHYNLGEYWIEVEMEDLASFDEELADHLHKQPAEHLQLLEEAAKEVADEVTRPRPAGDELLQDIQVMLKSDASPSSIRILKSDMMSHLVKIPGIIISASAVRAKATRISIQCRSCHNTLTNIAMRPGLEGYALPRKCNMDQAGRPKCPLDPYFIMPDKCKCVDFQTLKLQELPDAVPHGEMPRHMQLYCDRYLCDKVVPGNRVTIMGIYSIKKFGLNPSKGRDRVGVGIRSSYIRVLGIQVDTDGSGRSFAGSVSPQEEEEFRRLAALPNIYELISKSISPSIFGGMDMKKAIACLLFGGSRKRLPDGLTRRGDINLLMLGDPGTAKSQLLKFVEKCSPIGVYTSGKGSSAAGLTASVIRDPSSRNFIMEGGAMVLADGGVVCIDEFDKMREDDRVAIHEAMEQQTISIAKAGITTTLNSRCSVLAAANSVFGRWDETKGEDNIDFMPTILSRFDMIFIVKDEHNEERDMMLAKHVMTLHVSALTQTQAVEGEIDLAKMKKFIAYCRARCGPRLSAEAAEKLKNRYIIMRSGARQHERDSDRRSSIPITVRQLEAIVRIAEALSKMKLQPFATEADVEEALRLFQVSTLDAALSGNLSGVEGFTTQEDQEMLSRIEKQLKRRFAIGSQVSEHSIVQDFTKQKYPEHAIRKVLQLMLRRGEIQHRMQRKVLYRLK
As for B1, the binding result was “binds”.

Source of the values: PMC5499727 (Nucleic Acids Research, 2017).
